These results are taken from publication PMC6981324.

Common to all, as to test: ITC
Background: ITC needs no label: the signal is the heat of the interaction.

The target of experiment [1] is single mutant HasR (Ile671Gly), Ile671Gly-HasR (Serratia marcescens).
For experiment [2], the target named is wild-type HasR (WT-HasR) (Serratia marcescens).
Experiment [3] concerns the target double mutant HasR (Arg297Ala/Asn800Ala), DM-HasR (Serratia marcescens).

B1: heme-free HasA (apoHasA) (natural protein)
chain: MAFSVNYDSSFGGYSIHDYLGQWASTFGDVNHTNGNVTDANSGGFYGGSLSGSQYAISSTANQVTAFVAGGNLTYTLFNEPAHTLYGQLDSLSFGDGLSGGDTSPYSIQVPDVSFGGLNLSSLQAQGHDGVVHQVVYGLMSGDTGALETALNGILDDYGLSVNSTFDQVAAATAVGVQHADSPELLAA
As a reminder, the stoichiometry N is the number of molecules, sites or subunits per partner or assembly. B1: in experiment [1], the Ka is 1.8e+07 M⁻¹, the dH is -54 kcal/M and the stoichiometry N was 1.06. In experiment [2], this molecule showed a Ka of 1.7e+08 M⁻¹, a dH of -43 kcal/M and a stoichiometry N of 0.92. In experiment [3], this molecule displayed a Ka of 1.53e+07 M⁻¹, a dH of -26 kcal/M and a stoichiometry N of 1.05.

B2: heme-loaded HasA (holoHasA) (natural protein)
chain: B1 chain
As to B2, the Ka is 9.4e+07 M⁻¹ in experiment [1], 1.1e+06 M⁻¹ in experiment [2] and 2.4e+06 M⁻¹ in experiment [3]. The dH is -46 kcal/M in experiment [1], -21 kcal/M in experiment [2] and -15 kcal/M in experiment [3]. In addition, the stoichiometry N in experiment [1] turned out to be 0.99; in experiment [2], 1.11; in experiment [3], 1.02.
